According to patent US20210395381A1:

Target: recombinant mouse TfR-1 (mouse) (UniProt Q62351)
Assay: phage ELISA

recombinant mouse TfR-1 (mouse), sequence (Q62351 89-763 limits assumed): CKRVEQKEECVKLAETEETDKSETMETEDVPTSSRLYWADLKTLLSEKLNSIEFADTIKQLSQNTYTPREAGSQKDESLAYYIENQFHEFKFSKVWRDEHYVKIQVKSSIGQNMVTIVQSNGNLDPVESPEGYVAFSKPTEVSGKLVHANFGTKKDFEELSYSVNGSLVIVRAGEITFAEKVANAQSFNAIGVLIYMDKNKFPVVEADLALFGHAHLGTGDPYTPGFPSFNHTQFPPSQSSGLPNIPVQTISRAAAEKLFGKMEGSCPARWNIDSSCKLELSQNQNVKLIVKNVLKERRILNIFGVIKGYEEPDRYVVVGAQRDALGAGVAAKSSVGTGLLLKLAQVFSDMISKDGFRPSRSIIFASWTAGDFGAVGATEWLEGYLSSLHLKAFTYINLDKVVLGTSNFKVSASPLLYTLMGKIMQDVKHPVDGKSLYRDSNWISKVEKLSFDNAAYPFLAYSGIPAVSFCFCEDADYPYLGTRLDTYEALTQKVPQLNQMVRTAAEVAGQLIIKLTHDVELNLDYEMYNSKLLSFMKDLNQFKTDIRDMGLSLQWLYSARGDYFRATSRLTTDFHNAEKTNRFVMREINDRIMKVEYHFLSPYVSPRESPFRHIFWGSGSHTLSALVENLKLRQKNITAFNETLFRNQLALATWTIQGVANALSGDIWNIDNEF

Row | A450 | Binder
1 | 0.091 A450 | Clone 8.17 (VNAR) VNAR: ARVDQTPQTITKETGESLTINCVLRDSNCALPSTYWYRKKSGSTNEESISKGGRYVETVNSGSKSFSLRINDLTVEDSGTYRCKVIAYRKSIVRGCNYRKHDVYGDGTAVTVNA
2 | 0.046 A450 | Clone 8.137 (VNAR) VNAR: ARVDQTPQTITKETGESLTINCVLRDSNCALPSTYWYRKKSGSTNEESISKGGRYVETVNSGSKSFSLRINDLTVEDSGTYRCKVIAQLSSILRGCNYFGKDVYGDGTAVTVNA
3 | 0.053 A450 | Clone 8.97 (VNAR) VNAR: ARVDQTPQTITKETGESLTINCVLRDSNCALPSTYWYRKKSGSTNEESISKGGRYVETVNSGSKSFSLRINDLTVEDSGTYRCKVIAQLSSILRGCNYNIDDVYGDGTAVTVNA
